Literature values as cited in article PMC9412859 (World Journal of Diabetes, 2022).

Settings: rats, oral

Row | Substance | time of maximum plasma concentration (enteric-coated capsule containing pH responsive NPs) [h] | plasma exenatide level versus subcutaneous exenatide solution (functionalised NPs)
1 | Exendin-4: GLP1-RA, here released from enteric-coated capsule containing pH responsive NPs | 5 | 
2 | exenatide: GLP1-RA, here delivered orally in functionalised nanoparticles |  | not significantly different
